Laboratory results taken from paper PMC3521685.

Target: Myc-Sharp-1-bHLH (UniProt Q99PV5)
UniProt Q99PV5, sequence (Q99PV5 44-99): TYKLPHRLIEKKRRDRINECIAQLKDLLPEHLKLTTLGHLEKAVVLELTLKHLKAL

inhibition of MyoD activity (pMyog-Luc reporter) by Sharp-1-bHLH: 50%
Substance: FLAG-G9a (full-length G9a) (from UniProt Q9Z148 1-1263) (enzyme)
